Experimental data as given in the domain aggregation screens of Martell et al. (2025).

Test: soluble fraction after stress (log2 fold change); higher = more stays soluble; pooled small domains, quantitative proteomics
Conditions: stress: 50 degC
Summary of the method: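 Quantitative proteomics served as the high-throughput read-out for pooled custom libraries of small protein domains. Each was stressed at 50°C. Aggregation propensity is expressed as the base-two log fold change in soluble protein after stress. A higher value means a larger share of the protein remains in solution.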

| Sequence | soluble fraction (log2) |
| --- | --- |
| HMQERKYTVSFNTNGGSTINDQKITSGNVIISPGAPKRSGYTFVGWYYHGQPFDLNTKINQDYVLVAKWIK | -1.16 |
| HMNFNYPVIVKNSRINVSGVLSAAKLYTINGQLLQSYKGSGEFTSKTLTKGIYILQVDNARTKVLV | -1.29 |
| HMTDKLEEEAKKKAMEDALADEMNISKTIVHDGIRELARIGFLDVISRKGIYVADYTFTGNLETLLAVIRY | -0.926 |
| HMKLRSIQEQVQYLEKVDNQKAMQIILNMNDKASAVQILRNMKKEKAAAILAQMDPLQAAQILEDLA | 0.0608 |
| HMGTSRVQSILFDQSQWTINRAVHWLNTHHFISTKIDKTDKYLRFRQFDPNPDSHHATKRTSQGITFILE | -3.51 |
| HMNPTTDFFKLEGIDATRILVFDQVGRQVAQFSQPAQQMDIQALPAGVYALRIENADGQVYSARIVK | -0.16 |
| HMEVEADEFQQLLRSGEYVQALDRARANQDIGLRQQQIVQIARHQAASGIQAGAMGSLASLYQF | 0.0182 |
| HMHHGALKQALLDETARILAEEGESALSLRRLASNLGVSRTAPYNHFDNKDALLSAVAEEGFRR | -0.032 |
| HMAENPAYTKGVVNRLYKIRATPYYSYSYNVDQKTYEGRGKQYGEYENLHIGDTITVYYQRSNPSNSEA | -0.414 |
| HMGKTEETLQMEKLVEALRRSGRMKYEDAYRIVYAAFPDAKDFEGMLSGAIRAGFIELQMGNDGAFLRAL | -0.172 |
| HMSPIPLPVERAIHKLGSDISLARRRRHISQASLAERMGASLSTVRRMEKGDVRVPIHFFARALHVFG | -0.00115 |
| HMDETPESIFAKANELYPKYIKYFYTEQEYYSKVEEYINLYEFQKNSTYILGKDLEEFLEEYITNKQ | -0.517 |
| HMANLNFDMSQIVASRYQEKAAELGVTAPSLARTDYNTQEQATYEFVAREIIADYYDDRVAPFNDLIPE | -0.223 |
| HMTDYVPTIGTKISKDFGSKGYFEGEVVSGPHNVTVEGDNMVVWKVQYEDGDREEMTASEIAHWKA | -0.105 |
| HMSHYDILEVDPKASATEIKQSFRKKSLQYHPDRNKSSDAHEYMTKITEAYNILGDKDKRRHYDMELKL | 0.442 |
| HMSDIHARIAAALAALTSPEKIHDLVVDDDGKVSFTFHLTREDPATLVRDARKAVQAVDGVRDVKVNVVDP | 0.172 |
| HMIKEYEVLNYVTYEYDEIKKKLEEDFGIIVLMKEAYSDETPAGIIMDQDVEQGRIFKEGATNTITFTVS | -0.434 |
| HMKVSDPEAIKLIEQAQVKVIPFLDISEAADIQIALEELKNSEGTGQTDSAKVRLRNLLSPFSYL | 0.269 |
| HMVPAMGSLTLIKGGVNLRNAPGGLTIAQLDRGLVLSYTKFVQKDGYTWYLVNSPKGTGYVRSDVVQLGS | -0.251 |
| HMKQNSDDGEIRKIIIEILDNNLDNVNKYKSGRTNVLDFFVGQVMKQTRGQANPELTRSILTEELSN | 0.0594 |
| HMKSLDDVISKFRPTGSENKIDFRKRVISEIHAQGFFKIKGSVNHVAKALGVTRYTVYNYLDKLND | -3.23 |
| HMNGARALAGAIAEAIRKQVYRVNERLPAERELASHYDVSRGTLRSALALLEQEGLVTRKVGSGTFVMPP | -0.438 |
| HMVGIVQKTFEPTGIAAEELMKTLKSDKSLDFGNVQILATPKSSTSRQVVVVSGRANDVDRVMMVLSNLDS | -0.108 |
| HMDLYEILGVRRGAGGGEIRRAYRRLARRYHPDVNPGDREAQARYALITRAFETLNDPERRRAYDAGVP | -0.34 |
| HMFDVRWEQGYALAAAYAQEYGNLDVPRDYKTADGKKLGRWIQSQEQAYEQKKLSEEQISRLEMIGMQWG | -0.604 |

| Sequence | soluble fraction (log2) |
| --- | --- |
| HMTAKRELILRVFMDSNGKLLSIDDVFMEMRKKRSHRTSKMTVKRAIDLLVDLGLLKEVLFDDDNIKYEYV | -0.0948 |
| HMTTVDYDALRAAILQQVVSEDTTPALTTENTEIKYKFKFGLDTWVDLDGGKIAPAVSAKSYEIQISFKG | 0.132 |
| HMEISTENESFSNGLLEHPHYTRPPVWEDLKIPAVLMSGHHGKVAEWRKQQSEALTQERRPDLWEAFG | -0.0409 |
| HMAGTELASIKEIQSLVDRSEEALSARNFFWPKDKSESMLLSFRNMFSRLKLTKMDVQIFHGIFKVMEKS | -0.0116 |
| HMITVEAPMPGKVLSVNVKAGDKVEAGDVLLILEAMKMQNEIMAPEDGTVSDVRVSAGDTVATGDVMVV | 0.0409 |
| HMLTRSASREELDQLLKRLRQNLKQKNFFWPPDKEKSLVLYLENLFSKFPLNSSDIRFLHGIIRTLSEK | -0.178 |
| HMSPSRRENLTAAAKEYFVNTQIRHKTFGNGVIIKRSGNIAAIRFDNGTIKQIDLIAALQAKVLSIL | 0.168 |
| HMNVESMVGKQGKVVVEIDNISAKGMIKVDGMEWTARSVDGEIIPKDSLVAVVSVEGVKAMVRKAE | 0.163 |
| HMADPVTPQDLIRWSEALAGIARTGLGFTQSLYEQERFEEVLAVAADMRVAAGSSYNPDDLVHEWMKSVG | -0.292 |
| HMRSAKLPYSEFLKLVDTDKVNDVSIVGRTISGHLDDGSKFSTYTPPNDPNIIEKLSSHNVIINSAPE | -0.0117 |
| HMKTKKYKGVYKDSKGKIYFQIELGVDPITGKRIQKKGRKNQQGLPFNSFKEAYEEILRLKHEFVNSTIN | -2.69 |
| HMQENDLGAVEKIVDDVLHDPKNAQAVADFKAGSEKVLGFLTGQVMKASRGKANPSVVQEVLRQKLKN | -0.00966 |
| HMENYGEAITYIHGMIEDSSEKMLAASKALKVNANTLIKFMKDPYSVAAHIRDRIVENLANLEKAVKAI | 0.075 |
| HMPRDYYAVLEVSVSSTPVQIRQAYQRLARRYSPDVNFLDRDTEALFEEIVEAYRVLSNPTARTLYDRG | -4.48 |
| HMYSDQRMEIFLEHLPDFIEQLSHKHVTRQMVWEDYRMIYPDGYGKSQFFFHLAQNLKAQKP | -3.3 |
| HMSILDEAEFKKIESALLDFITNNIFTVKELLQASRGIKQDKFWKVFQFLQSERKVVVNELGYIEL | -0.205 |
| HMNNIGENIKKYRTKQGLSQEDFAKKSGVKYTTLTKIESGVIKKPSVLVMAKIAKALGVNIEELI | -0.0879 |
| HMNILAPFWERFGLSAFAAGNYDRAEGYFRKLEQKDPNSMSVLRNLGLILMAKGDAEGAEAYLLREEKL | -0.67 |
| HMNYHDTLSYLMDAFGGADNLQKLLGVGPSALSNYRRREHLPLNQARKLSNIAPEFGFNLDPYTLKISVID | -1.57 |
| HMTIDETKKQQVKDGLKDIPGVTVEFVGDKAVLKGAVTDANRVKIMQIVMAAKVLSDASGLTSK | -0.11 |
| HMGGVIEDDRGQWAHPGEVTKINSNNITMKGVDFPVLGISDTGDKKMMQPGKDYKFDGNSVTEYPMA | -0.197 |
| HMLGYQALASAFRSKVEAGIWPIGEAIPSEARLSKEYGVAVGTIRQAIAELAEEGILIKRHGKSTMVSSG | -0.873 |
| HMQNYLLFEEAKNIVNTLNLTNEKDWSEFIKKDFTYKNQIPIFPNQYYKHKGWVDWNDWLGINK | -1.56 |
| HMRRPTYPTVTTEAGMVVEDRSSGFVGDIVRWSFEGVTLRDRQQQLRHFTWKPGGFLINGTPVTLKRPE | -0.629 |
| HMSTMKIVRVKSNLKIGQEITSKDIEVVEVGAYNMPSEVMKNSEDVIGKYASAEMIKGEYVLAAKISDTP | 0.479 |

| Sequence | soluble fraction (log2) |
| --- | --- |
| HMEQVSDPALLERYAKEVVAASPKAVADYQAGNAKAFQALVGQMMKRTKGKGDPALIREILQKL | 0.0957 |
| HMSAIEIDAEKILNYLTDRGGKMPYGDTTAPEVIKDKFNISKAAFKRALGFLLRSNKIEQIDGWTYI | -0.317 |
| HMAKRQATIVYEGTNVRSGPSTSSAIVKRTGKGESYPIVSTKGDWYEIKLSNGDSAYVASWVVQTVD | -0.328 |
| HMDEPVDRLSPREQEVLALMAEGRSNAAIAHRLSITEKAVAKHINSIFTKLDLPLDEDDHRRVRAVLAWLR | -0.274 |
| HMKRYLFEEVLAFLKHNDGKSFNYKQLGAAMEIDNESDRFALLETLEELKHQGFVIETDIGKYAAKE | -0.324 |
| HMQNESGLFTMSDLWEAGLMGSENASRKRAAVGAFLGIGFGNGKQFLKRLNHFGVTKEEWESALEQLGE | -0.684 |
| HMDASVTIEQVERMVQANVSDDVIISQLQGRGAAQNLSTDDIINLTQKGISAEVIKAYQSAG | 0.0658 |
| HMLSFSEAERAVLSLLNRRPDLSAKALASELAVSARTVERYLQSLQQKGKLLRVGAKKGGYWQV | -0.478 |
| HMEISAIIGNNLQQLRKEQGLSLDQLALKTGVSKAVLSQLENGKANPTINTIWKIATALHVTYSALLEPP | -0.391 |
| HMSKNTFIGNIDDKELYVGSGRYGPFMLYDGKFTNITRYLSDESKELTDITIDDYSKIVNNARPK | -0.101 |
| HMGGGVERLTPRQREVLGYMAEGRSNSWIAGAIGFSEKAVVQHTSKIYDALGLAVDADDHRRVLAVLRYLT | -1.44 |
| HMHNNTITLNKKTYVYTASGKKMSKYLGYTYINKGTTLNYYGTKNIKGKTFYYIGDHAYVNAANVGKVTN | -1.92 |
| HMGSEISLNAFNIPKGSVSVTAGGTKLVENQDYTVDYTLGRIKILNEGILNSGVPIQVNFENNTLFN | 0.0829 |
| HMKKPIYLTIANDIEKKIFNNDYPKNERLPSERNLAEEYGVTRMTIRNSIEYLVSKGLLEKRLGSGNYVKR | -0.646 |
| HMRVDYKTQLQELLQRQGAAAPQYRLLVEEGPAHLRRFQVGVYFQGRLLGTGWGRNKKEAEQEAARQALMP | -0.494 |
| HMQPYTYNPNFLSDYRAYSLGIPLEAYDKLVQFRASGSFVNSMSDFQKITGVSDSLLAVLHSKFRYPK | -0.884 |
| HMSFTDLILKSANAIDEMGGIWENGKQILGEKAIAIHEEIVDNGLNPDKDGFYKLANGQMIQYG | -0.000487 |
| HMKLTESQLHKFTNDAVLAHIRNLIEFKGAFTEDDIEPIIRDRAAVYGIDLEDEDYKKVKTDVEYHFK | -0.000214 |
| HMSQAVEISSVKTQIDGKSYYLHTIKQGQTLYGISKAYGVSVEELTTVNPETSKGLKVGQIIKVPDTKT | 0.0299 |
| HMRLSVVDLQDSLRGLEYPAGKGDLINHAREHNASADVIAVLEQFSERTYRSAADVGEEFGRV | 0.111 |
| HMRSGFAFSEEEIKHLDNIVSPLLIKGQSIHHISIFHKDEVMMSERTLYSYVNNGLFSARNIDMPRTVRMR | 0.14 |
| HMGVLDFSAQLLKHLEMNGGQTPLGDKSPAEEIYAVFGVSKKVFKKAVGDLYRKRLIEISSNGIRMTS | -0.968 |
| HMLNPLLLPFVEAEDFQVKLEILAAMEGKVGEEDLDILYEALDLPKMTGNIEEQIHSIKQYIEMRK | -1.15 |
| HMGADPTTWPEIDAFVGRVAVTATGLFPSGQVEIDGRRFEARLAFGVAEPGARVVVRRRTDFGLLVEKETR | -0.389 |
| HMALKSGVIAHAVDDAVMRGLNVFTVSDDGSIVSMKDNDIVLGKDGKSPYSVSEWLEELKPNVPHWFG | -0.0243 |
